The assay concerns the target PSA (prostate specific antigen) (UniProt P07288 25-261). Nature of the assay: cell-based or functional assay.

PSA (prostate specific antigen), sequence (P07288 25-261 limits assumed): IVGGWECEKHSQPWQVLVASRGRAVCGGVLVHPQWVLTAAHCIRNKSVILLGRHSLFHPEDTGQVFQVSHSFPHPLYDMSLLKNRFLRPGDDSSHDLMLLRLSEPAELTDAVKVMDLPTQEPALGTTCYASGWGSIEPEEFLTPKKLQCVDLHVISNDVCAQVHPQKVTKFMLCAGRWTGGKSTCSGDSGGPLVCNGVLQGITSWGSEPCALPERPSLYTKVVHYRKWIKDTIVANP

B1: H6-68-AP-PSA-VHH (other)
chain: SSGSKALLKGVRDFNPISACVCLLENSSDGHSERLFGIGFGPYIIANQHLFRRNNGELTIKTMHGEFKVKNSTQLQMKPVEGRDIIVIKMAKDFPPFPQKLKFRQPTIKDRVCMVSTNFQQKSVSSLVSESSHIVHKEDTSFWQHWITTKDGQCGSPLVSIIDGNILGIHSLTHTTNGSNYFVEFPEKFVATYLDAADGWCKNWKFNADKISWGSFILWEDAPGGEHSSKLQSGAGREYVRFAPGGSGGSGGSGGSGGSGGDVQLQESGGGSVQAGGSLRLSCVASGWIYIPPCMAWFRQAPGKERERVATINPSGRTYYADSTKGRFRISQDNVKRTLYLYMNSLKPEDTATYYCAADDGTCPRMEFDDWGQGTQVTVSSGGSHHHHHH
In the case of B1, the “sensitivity of the PSA biosensor assay” value was 2 fold better than the N-terminal VHH configuration.

Values taken from patent US9791436 (UNIVERSITY OF QUEENSLAND, dated 2017).
